{"source": "patent US20220323607A1", "about": "“SYNTHETIC NANOCARRIERS COMPRISING AN IMMUNOSUPPRESSANT IN COMBINATION WITH HIGH AFFINITY IL-2 RECEPTOR AGONISTS TO ENHANCE IMMUNE TOLERANCE” (Selecta Biosciences, Inc., priority 2021, published 2022)", "test_system": "Ovalbumin-specific OTII T cells", "assay": "Adoptive transfer of ovalbumin-specific OTII T cells, Foxp3 expression (Example 5)", "assay_type": "in vivo", "settings": "mice with adoptively transferred OTII T cells; starting from ~3%", "procedure": "However, expansion of antigen-specific Treg can be more desirable than expansion of total Treg. The ability of ImmTOR plus antigen combined with IL-2 mutein to induce and/or expand antigen-specific Treg was evaluated. Ovalbumin-specific OTII T cells were adoptively transferred into mice prior to treatment with ovalbumin and ImmTOR and/or IL-2 mutein.", "data": [{"molecule": "ovalbumin (protein, UniProt P01012 2-386, looked up) Ovalbumin: GSIGAASMEFCFDVFKELKVHHANENIFYCPIAIMSALAMVYLGAKDSTRTQINKVVRFDKLPGFGDSIEAQCGTSVNVHSSLRDILNQITKPNDVYSFSLASRLYAEERYPILPEYLQCVKELYRGGLEPINFQTAADQARELINSWVESQTNGIIRNVLQPSSVDSQTAMVLVNAIVFKGLWEKAFKDEDTQAMPFRVTEQESKPVQMMYQIGLFRVASMASEKMKILELPFASGTMSMLVLLPDEVSGLEQLESIINFEKLTEWTSSNVMEERKIKVYLPRMKMEEKYNLTSVLMAMGITDVFSSSANLSGISSAESLKISQAVHAAHAEINEAGREVVGSAEAGVDAASVSEEFRADHPFLFCIKHIATNAVLFFGRCVSP", "values": [{"measurement": "percentage of Foxp3+ OTII cells", "value": "~6", "unit": "%"}]}]}
